In paper PMC3081313, “Factors Defining the Functional Oligomeric State of Escherichia coli DegP Protease” (PLoS ONE, 2011):

B1: proteolytically inactive DegP_(S210A) (enzyme, Escherichia coli, UniProt P0C0V0 27-474, looked up)
chain: AETSSATTAQQMPSLAPMLEKVMPSVVSINVEGSTTVNTPRMPRNFQQFFGDDSPFCQEGSPFQSSPFCQGGQGGNGGGQQQKFMALGSGVIIDADKGYVVTNNHVVDNATVIKVQLSDGRKFDAKMVGKDPRSDIALIQIQNPKNLTAIKMADSDALRVGDYTVAIGNPFGLGETVTSGIVSALGRSGLNAENYENFIQTDAAINRGNAGGALVNLNGELIGINTAILAPDGGNIGIGFAIPSNMVKNLTSQMVEYGQVKRGELGIMGTELNSELAKAMKVDAQRGAFVSQVLPNSSAAKAGIKAGDVITSLNGKPISSFAALRAQVGTMPVGSKLTLGLLRDGKQVNVNLELQQSSQNQVDSSSIFNGIEGAEMSNKGKDQGVVVNNVKTGTPAAQIGLKKGDVIIGANQQAVKNIAELRKVLDSKPSVLALNIQRGDSTIYLLMQ
notes: Escherichia coli DegP (HtrA, protease Do), periplasmic protease and chaperone, with the active-site change S210A; Number of copies depends on the sample: hexamer alone, 12-mer or 24-mer with substrate; also called HtrA_(S210A); DegP6
B2: PZ model peptide P^+Z^+ (peptide)
peptide: ALVLDMMYGGMRGYQV
notes: also called PepP^+Z^+; source: synthetic peptide (GenScript USA Inc.)
B3: PZ model peptide P^−Z^+ (peptide)
peptide: ALELDMMYGGMRGYQV
notes: as P^+Z^+ but the P motif altered from ALV to ALE; source: synthetic peptide (GenScript USA Inc.)

What was measured:
[1] = molecular target: the molecule itself; experiment: SEC; DegP_(S210A) (42 µM) mixed with full-length β-casein (42 µM; also in molar excess), 37°C 10 min in 50 mM HEPES pH 7.3; Superdex 200 in 50 mM HEPES pH 7.3, 150 mM NaCl at 4°C; peak fractions on SDS-PAGE
[2] = molecular target: the molecule itself; experiment: SEC; DegP_(S210A) alone (42 µM monomer), incubated in 50 mM HEPES pH 7.3 at 37°C for 10 min; Superdex 200 10/300 GL in 50 mM HEPES pH 7.3, 150 mM NaCl at 4°C
[3] = molecular target: the molecule itself; experiment: SEC; DegP_(S210A) mixed with MDH peptide fragments, 37°C 10 min; Superdex 200 in 50 mM HEPES pH 7.3, 150 mM NaCl at 4°C
[4] = molecular target: B1; experiment: SEC; DegP_(S210A) (94 µM) mixed with P^+Z^+ peptide (376 µM), 37°C 10 min; Superdex 200 in 50 mM HEPES pH 7.3, 150 mM NaCl at 4°C; settings: both partners purified
[5] = molecular target: B1; experiment: SEC; DegP_(S210A) (94 µM) mixed with P^−Z^+ peptide (376 µM), 37°C 10 min; Superdex 200 in 50 mM HEPES pH 7.3, 150 mM NaCl at 4°C; settings: both partners purified

B1
stoichiometry N [1]: 24 | stoichiometry N [2]: 6 | stoichiometry N [3]: 12

B2
binding result [4]: binds

B3
binding result [5]: binds
